According to patent US20240262901A1 (published 2024):

Legend:
Rat RGMa = Rat RGMa (rat, UniProt D4A188 170-424); experiment: BIAcore; Ab captured via anti-hIgG Fc, antigen injected
Description: (§1) The potency data correlates with the affinity data (see Table 5). The affinity of h5F9.23 affinity matured Abs towards human RGMa, rat RGMa, and human RGMc were determined by BIAcore analysis (Table 5). Testing Abs were captured to the surface of a CM5 chip via anti-hIgG Fc Ab, and serially diluted antigens were injected. Association and dissociation rates were monitored for 5 and 10 min respectively. Sensorgrams were fitted by global analysis using the BIAevaluation 4.0.1 software for a 1:1 Langmuir binding model. The equilibrium dissociation constants (KD) were calculated from kinetic rate constants (off rate kd and on rate ka): KD=kd/ka.

human RGMa = target: T1, human RGMa (human, UniProt Q96B86 48-422, limits assumed, biotinylated in the indirect ELISA); experiment: as above
T1 construct: also called hRGMa; biotin hRGMa
T1 sequence: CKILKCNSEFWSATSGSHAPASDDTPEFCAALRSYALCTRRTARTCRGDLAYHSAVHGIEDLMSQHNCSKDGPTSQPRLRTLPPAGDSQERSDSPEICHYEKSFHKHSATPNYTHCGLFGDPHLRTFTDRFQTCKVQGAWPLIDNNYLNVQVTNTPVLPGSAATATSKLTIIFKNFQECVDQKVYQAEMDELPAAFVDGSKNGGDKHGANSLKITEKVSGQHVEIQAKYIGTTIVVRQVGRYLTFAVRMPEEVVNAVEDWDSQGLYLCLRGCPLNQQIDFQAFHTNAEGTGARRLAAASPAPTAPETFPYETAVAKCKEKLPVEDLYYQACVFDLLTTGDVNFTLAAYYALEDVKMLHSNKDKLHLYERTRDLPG
Description: as §1

Chain of Rat RGMa (D4A188 entry or part of it): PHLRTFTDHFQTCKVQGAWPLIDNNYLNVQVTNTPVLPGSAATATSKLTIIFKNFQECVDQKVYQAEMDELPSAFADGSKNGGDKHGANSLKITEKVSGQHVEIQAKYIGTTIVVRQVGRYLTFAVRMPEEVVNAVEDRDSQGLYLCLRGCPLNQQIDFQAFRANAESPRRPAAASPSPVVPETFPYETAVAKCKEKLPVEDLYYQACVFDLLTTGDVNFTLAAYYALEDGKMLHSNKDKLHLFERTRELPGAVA

Kd (Rat RGMa): 2.1 nM
koff (Rat RGMa): 0.0017 s⁻¹
kon (Rat RGMa): 830000 M⁻¹ s⁻¹
kon (human RGMa): 6e+06 M⁻¹ s⁻¹
B1: humanized antibody 5F9.23 (antibody, V domains shown)
VH: EVQLVESGGGLVQPGGSLRLSCAASGFTFSNYGMNWIRQAPGKGLEWIGMIYYDSSEKHYADSVKGRFTISRDNSKNTLYLQMNSLRAEDTAVYYCAKGTTPDYWGQGTMVTVSS
VL: DVVLTQSPLSLPVTLGQPASISCRSSQSLEYSDGYTFLEWFQQRPGQSPRLLIYEVSNRFSGVPDRFSGSGSGTDFTLKISRVEAEDVGVYYCFQATHDPLTFGQGTKLEIKR
notes: also called h5F9.23; H5F9.23
